Experimental data: US20060020109A1 (Harvard, published 2006)

T1: soluble recombinant HLA-DR2 molecules (MHC class II HLA-DR2 protein) (human)
T1 chain 1: not shown
T1 chain 2: not shown

B1: synthetic peptide #107 (peptide)
peptide: ENPVVHYFKNIVTPR
notes: Analog of MBP 85-99 with F to Y at the position of MBP residue 91

Columns and labels:
[1] = target: soluble recombinant HLA-DR2 molecules (MHC class II HLA-DR2 protein) (human); assay: competition ELISA on soluble HLA-DR2; competitor biotinylated Cop 1 (1.5 µM)
[2] = target: soluble recombinant HLA-DR2 molecules (MHC class II HLA-DR2 protein) (human); assay: competition ELISA on soluble HLA-DR2; competitor biotinylated MBP 85-99 (0.13 µM)
[3] = target: HLA-DR2 (DRB1*1501) on antigen presenting cells (MGAR, L466) (human); assay: cell-based or functional assay
[4] = target: T2, soluble recombinant HLA-DR2 molecules (MHC class II HLA-DR2 protein) (human); assay: competition ELISA on soluble HLA-DR2; competitor biotinylated MBP 85-99 (0.13 µM)
T2 construct: Soluble, empty protein from Drosophila S2 cells, captured on plates by antibody LB3.1; also called MHC class II DR2 protein; recombinant HLA-DR2 protein

[5] = target: T2, soluble recombinant HLA-DR2 molecules …; assay: competition ELISA on soluble HLA-DR2; competitor biotinylated Cop 1 (1.5 µM)
[6] = target: T1, soluble recombinant HLA-DR2 molecules …; assay: as above; details: remark: other sources report otherwise

| Molecule | IC50 [1] | IC50 [2] | Inhibition of IL-2 production (%), Hy1B [3] | IC50 [4] | IC50 [5] | IC50 [6] |
| --- | --- | --- | --- | --- | --- | --- |
| Cop 1 (Copolymer 1; poly(Y,E,A,K); Copaxone), unlabeled | 7 µM | 100 µM |  |  |  |  |
| EEAAYAYKKAAAAAA [synthetic peptide #112] |  |  | 32% | > 1000 µM | 15 µM |  |
| AEKAYAAAAAAAAAA [synthetic peptide #43] |  |  | 0% |  |  | > 1 mM |
| EAEAYKAYKAAAAAA [synthetic peptide #96] |  |  | 43% | 6 µM | > 1000 µM |  |
| EAKKYEAYKAAAAAA [synthetic peptide #102] |  |  | 57% | 20 µM | 2 µM |  |
| AAKAYEAYKAAAAAA [synthetic peptide #93] |  |  | 48% | 8 µM | > 150 µM |  |
| AAEAYKAYKAAAAAA [synthetic peptide #94] |  |  | 50% | 3 µM | > 150 µM |  |
| AAEKYAEYKAAAAAA [synthetic peptide #104] |  |  | 53% | > 150 µM | 20 µM |  |
| EAAKYEAYKAAAAAA [synthetic peptide #100] |  |  | 56% | > 150 µM | 2 µM |  |
| AKEAAAAYAAAAAAA [synthetic peptide #45] |  |  | 0% | 95 µM | > 150 µM |  |
| AEKAYAAYAAAAAAA [synthetic peptide #52] |  |  | 20% | 150 µM | > 150 µM |  |
| EAKAYEAYKAAAAAA [synthetic peptide #95] |  |  | 47% | 40 µM | > 1000 µM |  |
| EAAAYKAYKAAAAAA [synthetic peptide #99] |  |  | 57% | 5 µM | > 150 µM |  |
| EKAKYEAYKAAAAAA [synthetic peptide #101] |  |  | 53% | 3 µM | < 1 µM |  |
| AKAAYEAYAAAAAAA [synthetic peptide #64] |  |  | 18% |  | > 1000 µM |  |
| B1 |  |  | 64% | < 1 µM | 40 µM |  |
| EEKAYAYAKAAAAAA [synthetic peptide #106] |  |  | 39% | > 1000 µM | 100 µM |  |
| KEEYAAAAAAAAAAA [synthetic peptide #42] |  |  | 49% |  | > 1000 µM |  |
| EEAAYKAAKAAAAAA [synthetic peptide #108] |  |  |  | > 1000 µM | 2 µM |  |
| AEEAYKAYAAAAAAA [synthetic peptide #53] |  |  | 13% | 150 µM | > 150 µM |  |
| AKKEYAEYKAAAAAA [synthetic peptide #103] |  |  | 49% | > 150 µM | < 1 µM |  |
| EAKAYEYAKAAAAAA [synthetic peptide #113] |  |  | 30% | > 1000 µM | < 1 µM |  |
| EEAAYKAAKAAAAAA [synthetic peptide #111] |  |  |  | > 1000 µM | < 1 µM |  |
| AKKAAEAYAAAAAAA [synthetic peptide #50] |  |  | 22% | 10 µM | 40 µM |  |
